From the supplement of paper PMC7125110
± gives the standard error. Variants at the floor of the assay were thinned out.

B1: glmS ribozyme (parent)
chain: AUAAAAGCGCCAGAACUACAGAAAUGUAGUUGACGAGGAGGAGGUUUAUCGAAUUUUCGGCGGAUGCCUCCAAA

Columns and labels:
Conditions in all cases: with glucosamine-6-phosphate
[1] = variants of: B1; test: self-cleavage kobs at 160 uM GlcN6P; higher = faster cleavage; RNA array
Procedure, shortened: (§1)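 Weighted Michaelis–Menten fits across concentrations supplied kcat and KM, based on kobs from one- or two-exponential decay fits to normalised per-tile medians. The data came from barcoded ribozyme variants transcribed in situ by E. coli RNA polymerase on sequenced MiSeq chips and tracked at 37 °C by a hybridised Cy3 probe. Glucosamine-6-phosphate (40 μM to 10 mM) in HEPES/KCl/Mg(OAc)2 buffer was flowed in.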

[2] = variants of: B1; test: self-cleavage kobs at 640 uM GlcN6P; higher = faster cleavage; RNA array
Procedure, shortened: as §1

[3] = variants of: B1; test: self-cleavage kobs at 2500 uM GlcN6P; higher = faster cleavage; RNA array
Procedure, shortened: as §1

[4] = variants of: B1; test: self-cleavage kobs at 10000 uM GlcN6P; higher = faster cleavage; RNA array
Procedure, shortened: as §1

| Variant | self-cleavage kobs at 160 uM GlcN6P [1] [s⁻¹] | self-cleavage kobs at 640 uM GlcN6P [2] [s⁻¹] | self-cleavage kobs at 2500 uM GlcN6P [3] [s⁻¹] | self-cleavage kobs at 10000 uM GlcN6P [4] [s⁻¹] |
| --- | --- | --- | --- | --- |
| G40A C68G | < 1e-05 | < 1e-05 | < 1e-05 | < 1e-05 |
| G9U A42C | < 1e-05 | – | < 1e-05 | – |
| G62U G66C | < 1e-05 | < 1e-05 | < 1e-05 | < 1e-05 |
| A12U C50G C70G | 0.000311 ± 7.3e-05 | 0.000429 ± 8.2e-05 | 0.000205 ± 7.3e-05 | 0.000273 ± 6e-05 |
| C11U G44U G60A C61G | < 1e-05 | < 1e-05 | < 1e-05 | < 1e-05 |
| G38C G60C C71G | < 1e-05 | < 1e-05 | – | – |
| G7C A48C C50U | < 1e-05 | – | – | < 1e-05 |
| U30C G35C | < 1e-05 | < 1e-05 | < 1e-05 | < 1e-05 |
| G38A G41C | < 1e-05 | < 1e-05 | < 1e-05 | < 1e-05 |
| C11G G29A G37U | < 1e-05 | < 1e-05 | – | – |
| C34A U54A | < 1e-05 | – | < 1e-05 | – |
| C34G G40C A48G U49G C71U | < 1e-05 | < 1e-05 | < 1e-05 | < 1e-05 |
| G13C G43C C70A | < 1e-05 | – | – | – |
| G44U G59U | < 1e-05 | < 1e-05 | < 1e-05 | < 1e-05 |
| C16G A39C U45C A48C | < 1e-05 | < 1e-05 | – | – |
| G9U G13U G32A U47A G62A | < 1e-05 | – | – | – |
| G13A G51A C70A | 6.55e-05 ± 2.4e-05 | – | – | – |
| A36G C50A | < 1e-05 | < 1e-05 | – | – |
| C8U C16U U54A C61A C71U | < 1e-05 | < 1e-05 | – | – |
| A33U G44C A52U | < 1e-05 | – | < 1e-05 | – |
| C8G U57G | < 1e-05 | < 1e-05 | < 1e-05 | – |
| G51C G59U C71U | < 1e-05 | – | < 1e-05 | – |
| G43U G59U G60A | < 1e-05 | – | < 1e-05 | – |
| C10G G32U U54G C68A | 5.61e-05 ± 2.2e-05 | – | – | – |
